Test results taken from CN114805568A (BEIJING KENUO XINCHENG TECH CO LTD, dated 2022).
“And” between values parts separate entries of the source, which are not always exact repeats. Identical values can stand only once.

What was measured:
[1] = target: T1, LILRB2-mFc(NCBI号:AAH36827，22-461氨基酸) (UniProt Q8N423 22-461); assay: blocking ELISA: LILRB2-mFc binding to coated HLA-G
T1 construct: range 22-461; also called 重组LILRB2; not shown: mouse Fc (mFc)

[2] = target: T2, LILRB2重组蛋白(购于ACRO，Cat# LI2-H5220) (UniProt Q8N423 22-461); assay: BLI (Octet QKe), antibody captured on AHC probe, LILRB2 as analyte, 1:1 fit
T2 construct: Bought reagent; Used as analyte at '60nm' in BLI

IC50 [1]: 0.86 nM and 1 nM
Kd [2]: 4.93 nM
koff [2]: 0.00211 s⁻¹
kon [2]: 428000 M⁻¹ s⁻¹
B1: JTX-8064 (antibody, V domains shown)
VH: QITLKESGPTLVKPTQTLTLTCTFSGFSLNTYAMGVSWIRQPPGKALEWLASIWWNGNKYNNPSLKSRLTVTKDTSKNQVVLTMTNMDPVDTATYYCAHSRIIRFTDYVMDAWGQGTLVTVSS
VL: DIQMTQSPSSLSTSVGDRVTITCRASEDIYNDLAWYQQKPGKAPKLLIYNANSLHTGVASRFSGSGSGTDFTFTISSLQPEDVATYFCQQYYDYPLTFGQGTKLEIK
notes: expressed in HEK293, Protein A purified; also called 对照抗体
